Source: paper PMC2755895 (The Journal of Biological Chemistry, 2009)
One block for each substance: values may come before it. No end group written: not given here.

How the values were obtained:
[1] = molecular target: PC4CTD (Homo sapiens, UniProt P53999); test: Fluorescence titration of p53TAD peptides; type: binding; settings: in words
[2] = molecular target: mutation of single hydrophobic residues to alanine (p53N peptides)
[3] = molecular target: QS2 W53Q/F54S p53N-(35–57) (UniProt P04637); test: fluorescence polarisation
[4] = molecular target: hDp53N-(10–57)-aspartic acid mimic (UniProt P04637); test: fluorescence polarisation
[5] = molecular target: p53 DNA-binding domain
[6] = test system: N-terminal domain of MDM2; settings: cited from earlier work
[7] = test system: subdomains of p300; settings: cited from earlier work

- quantifiability of binding to PC4CTD [1]: no quantifiable binding
Substance: D41K/D42K/D48K/D49K/E51K p53N-(35–57) (LPSQAMKKLMLSPKKIKQWFTED-{K(methoxycoumarin)})

- Kd [2]: 14 to 16 µM
- Kd [3]: 20 µM
- Kd [4]: 5 µM
Substance: PC4 C-terminal DNA-binding domain, PC4CTD-(61–127) (from UniProt P53999 61-127) (domain or fragment)

- Kd [5]: > 100 µM
Substance: p53 N-terminal transactivation domain, TAD-(1–93) (from UniProt P04637 1-93) (domain or fragment)

Substance: TAD1: p53 transactivation subdomain TAD1-(1–40)
- interaction with N-terminal domain of MDM2 [6]: very tight
- binding to p300 subdomains [7]: bind only weakly
